Results: article PMC10371975, “Potential of Y. lipolytica epoxide hydrolase for efficient production of enantiopure (R)-1,2-octanediol” (AMB Express, 2023)

Substrate: CCCCCCC1CO1
Experiment: purified protein
Assay type: biochemical, Yarrowia lipolytica
Conditions: 50 mM Tris-sulphate pH 8.0, 30 °C, 0.1-0.7 mM EO, 1 µg enzyme

B1: Yleh (Yarrowia lipolytica CLIB122) (protein)
chain: MTDSLSLGYYQLFHKYAVLGDKRWHYLDIPPTSPSPALLGSGKTLMLCHGFPDSWYGWRKQIPILRNLGYRLLVPSQMGYTRSEAPLYPTPEPNEKGEYPELGLEDGTDALKDLYCYTGKFYAQCMDELLTQLGIPTVTIIGHDYGAYLGPKLYLYFPHRVEAIATSCWHYVPALKKFFAIPDFIKLAPSLSYQAYLIGDASKDFATREGSEPFLRQVFGGEGWGGSDSSVHMTEPEFQNYMTEFATGGRFLSYMVSTYKARRLTFEIEKQDFLDKGRTPESMQVDVPYLHVGAEQDMAFRPPMIKNLRKYVKPGRLDEVWIDASHWLMFEKADEFNHELVKWLDKIHGSQSKL
notes: recombinant full-length 354-residue protein (ORF 1065 bp), pET28a+ vector, E. coli BL21AI host, Ni-NTA plus size exclusion purification (His tag implied); distinct from bifunctional Ylehd of the same yeast
  Km: 430 ± 17 µM
  kcat: 3.3458 ± 0.2163 s⁻¹
